Data taken from patent publication US20190119696A1 (YEDA RESEARCH AND DEVELOPMENT, published 2019).

Target: T1, APS1 (small subunit of ADP-glucose pyrophosphorylase, AGPase; AT5G48300), endogenous in Arabidopsis plants (Arabidopsis thaliana, UniProt P55228 72-520, limits assumed)
T1 construct: Endogenous plant protein
T1 sequence (looked up): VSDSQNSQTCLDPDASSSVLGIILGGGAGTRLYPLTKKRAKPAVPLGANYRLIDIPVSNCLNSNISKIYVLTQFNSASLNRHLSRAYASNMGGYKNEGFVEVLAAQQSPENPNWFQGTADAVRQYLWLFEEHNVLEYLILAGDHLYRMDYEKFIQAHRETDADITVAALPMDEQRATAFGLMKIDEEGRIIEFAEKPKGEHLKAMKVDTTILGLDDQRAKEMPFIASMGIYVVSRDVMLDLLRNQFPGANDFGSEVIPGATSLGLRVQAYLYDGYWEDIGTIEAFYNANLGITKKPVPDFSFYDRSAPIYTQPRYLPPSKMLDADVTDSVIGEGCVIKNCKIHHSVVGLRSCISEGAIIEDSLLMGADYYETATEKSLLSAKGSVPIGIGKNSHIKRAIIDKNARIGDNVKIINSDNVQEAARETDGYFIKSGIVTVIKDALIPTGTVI
Assay: in planta trapping of intermolecular disulfide reaction intermediates; non-reducing SDS-PAGE, anti-HA immunoblot

- binding result: no binding
B1: ACHT4ΔC (Arabidopsis ACHT4 lacking the 47-amino acid C-terminus), fused to the HA3 affinity tag (enzyme, not shown: small tags and cut ends)
chain: SSAITAQTTLRIGTAQKWWEKGLKDNMREISSAQELVDSLTNAGDKLVVVDFFSPGCGGCKALHPKICQFAEMNPDVQFLQVNYEEHKSMCYSLGVHVLPFFRFYRGSQGRVCSFSCTNATIKKFRDALAKHGPDRCSLGPTKGLEEKELVALAAN
notes: also called AtACHT4ΔC; AtACHT4-C-Del
